Assay results from patent publication US20240424127A1 (BRIGHT PEAK THERAPEUTICS, published 2024).
Where two headings read alike, the source gives them in different places. Bridges are numbered along the chain shown (N, C = ends). [ ]: non-standard residue; d: D form. glutaryl‑PEG9‑azide = glutaryl-PEG9-azide group on the N-terminal amine; L6P = lysine side chain carrying PEG6-NH2 (diglycolyl-PEG-amine); hSer = N[C@@H](CCO)C(=O)O; Nle = CCCC[C@H](N)C(=O)O

T1: IL-7 receptor (IL-7Rα/γc heterodimer) on primary human T cells (human, UniProt P16871 21-459; P31785 23-369)
T1 sequence (looked up) 1: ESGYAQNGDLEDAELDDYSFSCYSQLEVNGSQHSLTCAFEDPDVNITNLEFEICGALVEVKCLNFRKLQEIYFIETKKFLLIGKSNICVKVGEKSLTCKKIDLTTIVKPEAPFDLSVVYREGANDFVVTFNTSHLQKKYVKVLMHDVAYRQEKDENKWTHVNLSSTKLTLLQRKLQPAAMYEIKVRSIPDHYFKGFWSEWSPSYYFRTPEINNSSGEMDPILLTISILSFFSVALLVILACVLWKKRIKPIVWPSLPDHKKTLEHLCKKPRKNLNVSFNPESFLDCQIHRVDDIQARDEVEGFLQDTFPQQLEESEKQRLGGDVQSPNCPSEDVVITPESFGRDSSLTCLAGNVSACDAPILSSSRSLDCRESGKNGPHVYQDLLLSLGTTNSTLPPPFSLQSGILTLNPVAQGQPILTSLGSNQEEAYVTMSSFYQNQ
T1 sequence (looked up) 2: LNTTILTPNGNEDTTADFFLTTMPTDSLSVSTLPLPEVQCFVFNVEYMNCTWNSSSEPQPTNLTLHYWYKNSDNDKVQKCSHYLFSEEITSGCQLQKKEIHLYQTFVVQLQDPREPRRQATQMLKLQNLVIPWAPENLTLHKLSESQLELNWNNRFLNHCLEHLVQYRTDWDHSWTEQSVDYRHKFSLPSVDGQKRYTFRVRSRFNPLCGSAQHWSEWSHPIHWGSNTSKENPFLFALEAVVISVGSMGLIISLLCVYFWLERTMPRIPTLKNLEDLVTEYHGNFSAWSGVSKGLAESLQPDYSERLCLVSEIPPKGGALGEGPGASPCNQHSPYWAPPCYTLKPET

T2: Recombinant Human IL-7R alpha/CD127 Fc Avi-tag Protein, CF (R&D Systems #AVI10317-050) (human, UniProt P16871 21-239)
T2 construct: Bought construct; It was loaded on streptavidin (SAX/SAX2) biosensors; not shown: Fc and Avi-tag of a bought protein
T2 sequence (looked up): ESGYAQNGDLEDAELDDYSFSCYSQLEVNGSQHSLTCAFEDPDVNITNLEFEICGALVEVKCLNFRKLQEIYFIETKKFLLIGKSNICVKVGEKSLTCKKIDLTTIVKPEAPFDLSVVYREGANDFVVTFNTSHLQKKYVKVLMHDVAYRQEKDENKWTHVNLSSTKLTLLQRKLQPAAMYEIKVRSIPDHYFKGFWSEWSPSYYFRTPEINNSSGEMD


Experiments:
[1] = biological target: T1, IL-7 receptor (IL-7Rα/γc heterodimer) …; experiment: cell-based or functional assay
[2] = biological target: T2, Recombinant Human IL-7R alpha/CD127 Fc …; experiment: BLI (Octet R8); CD127-Fc-Avi loaded on SAX2 sensor, IL-7 polypeptide as analyte
[3] = biological target: T2, Recombinant Human IL-7R alpha/CD127 Fc …; experiment: as above; remark: listed apart in the source
[4] = biological target: T2, Recombinant Human IL-7R alpha/CD127 Fc …; experiment: as above; remark: listed apart in the source
[5] = biological target: T2, Recombinant Human IL-7R alpha/CD127 Fc …; experiment: as above; remark: listed apart in the source
[6] = biological target: T2, Recombinant Human IL-7R alpha/CD127 Fc …; experiment: as above; remark: listed apart in the source
[7] = biological target: T2, Recombinant Human IL-7R alpha/CD127 Fc …; experiment: as above; remark: listed apart in the source
[8] = biological target: T2, Recombinant Human IL-7R alpha/CD127 Fc …; experiment: as above; remark: listed apart in the source

Row | Binder | EC50 pSTAT5, CD4 Memory [1] | EC50 pSTAT5, CD4 Naive [1] | EC50 pSTAT5, CD4 Treg [1] | EC50 pSTAT5, CD8 Memory [1] | EC50 pSTAT5, CD8 Naive [1] | other results
1 | CMP-036, synthetic IL-7 of SEQ ID NO: 3 (no N-terminal conjugation handle) (ligand, ends and bridges not checked) DCDIEGKDGKQYESVL[Nle]VSIDQLLDS[Nle]KEIGSNCL[hSer]NEFNFFKRHICDANKEG[Nle]FLFRAARKLRQFLK[Nle]NSTGDF[hSer]LHLLKVSEGTTILLNCTGQVKGRKPAALGEAQPTKSL[hSer]ENKSLKEQKKLNDLCFLKRLLQEIKTCWNKIL[Nle]GTKEH | 5 pM | 5 pM | 15 pM | 6 pM | 6 pM | –
2 | CMP-113, synthetic IL-7 C2A, C92A of SEQ ID NO: 10 with glutaryl-PEG9-azide at the N-terminus (ligand, ends and bridges not checked) {glutaryl‑PEG9‑azide}-DADIEGKDGKQYESVL[Nle]VSIDQLLDS[Nle]KEIGSNCL[hSer]NEFNFFKRHICDANKEG[Nle]FLFRAARKLRQFLK[Nle]NSTGDF[hSer]LHLLKVSEGTTILLNATGQVKGRKPAALGEAQPTKSL[hSer]ENKSLKEQKKLNDLCFLKRLLQEIKTCWNKIL[Nle]GTKEH | 40 pM | 40 pM | 0.18 nM | 60 pM | 50 pM | –
3 | CMP-111, synthetic IL-7 K81(L6P), G85N of SEQ ID NO: 8 with glutaryl-PEG9-azide at the N-terminus (ligand, disulfide 34-129, 47-141, 2-92) {glutaryl‑PEG9‑azide}-DCDIEGKDGKQYESVL[Nle]VSIDQLLDS[Nle]KEIGSNCL[hSer]NEFNFFKRHICDANKEG[Nle]FLFRAARKLRQFLK[Nle]NSTGDF[hSer]LHLLK(L6P)VSENTTILLNCTGQVKGRKPAALGEAQPTKSL[hSer]ENKSLKEQKKLNDLCFLKRLLQEIKTCWNKIL[Nle]GTKEH-NH2 | 11.2 nM | 11.6 nM | 82.3 nM | 16.2 nM | 12.3 nM | koff [2]: 0.0353 s⁻¹; kon [2]: 1.41e+06 M⁻¹ s⁻¹; Kd [3]: 16.5 nM; koff [3]: 0.0318 s⁻¹; kon [3]: 1.92e+06 M⁻¹ s⁻¹
4 | CMP-202, synthetic IL-7 variant of Example 2W (ligand, disulfide 34-129, 47-141) {glutaryl‑PEG9‑azide}-DSDIEGKDGKQYESVL[Nle]VSIDQLLDS[Nle]KEIGSNCL[hSer]NEFNFFKRHICDANKEG[Nle]FLFRAARKLRQFLK[Nle]NSTGDF[hSer]LHLLK(L6P)VSENTTILLNSTGQVKGRKPAALGEAQPTKSL[hSer]ENKSLKEQKKLNDLCFLKRLLQEIKTCWNKIL[Nle]GTKEH-NH2 | 38.1 nM | 18.9 nM | 32.7 nM | 37.4 nM | 20.4 nM | Kd [4]: 25.4 nM; koff [4]: 0.00997 s⁻¹; kon [4]: 393000 M⁻¹ s⁻¹
5 | CMP-107, synthetic IL-7 V15W of SEQ ID NO: 5 with glutaryl-PEG9-azide at the N-terminus (ligand, disulfide 34-129, 47-141, 2-92, also called synthetic IL-7 with V15W) {glutaryl‑PEG9‑azide}-DCDIEGKDGKQYESWL[Nle]VSIDQLLDS[Nle]KEIGSNCL[hSer]NEFNFFKRHICDANKEG[Nle]FLFRAARKLRQFLK[Nle]NSTGDF[hSer]LHLLKVSEGTTILLNCTGQVKGRKPAALGEAQPTKSL[hSer]ENKSLKEQKKLNDLCFLKRLLQEIKTCWNKIL[Nle]GTKEH-NH2 | 0.4 pM | 1 pM | 1.2 nM | 34 pM | 6 pM | Kd [5]: 22.5 nM; koff [5]: 0.0259 s⁻¹; kon [5]: 1.15e+06 M⁻¹ s⁻¹
6 | CMP-200, IL-7 syntein missing C2-C92 disulphide bond, N-terminus with glutaric acid and azido-PEG (ligand, disulfide 34-129, 47-141, also called CMP-200-001) {glutaryl‑PEG9‑azide}-DSDIEGKDGKQYESVL[Nle]VSIDQLLDS[Nle]KEIGSNCL[hSer]NEFNFFKRHICDANKEG[Nle]FLFRAARKLRQFLK[Nle]NSTGDF[hSer]LHLLKVSEGTTILLNSTGQVKGRKPAALGEAQPTKSL[hSer]ENKSLKEQKKLNDLCFLKRLLQEIKTCWNKIL[Nle]GTKEH-NH2 | 30 pM | 20 pM | 0.14 nM | 40 pM | 30 pM | Kd [6]: 7.18 nM; koff [6]: 0.00879 s⁻¹; kon [6]: 1.22e+06 M⁻¹ s⁻¹
7 | CMP-201, synthetic IL-7 variant of Example 2V (ligand, disulfide 34-129, 47-141) {glutaryl‑PEG9‑azide}-DSDIEGKDGKQYESVL[Nle]VSIDQLLDS[Nle]KEIGSNCL[hSer]NEFNFFKRHICDANKEG[Nle]FLFRAARKLRQFLK[Nle]NSTGDF[hSer]LHLLKVSENTTILLNSTGQVKGRKPAALGEAQPTKSL[hSer]ENKSLKEQKKLNDLCFLKRLLQEIKTCWNKIL[Nle]GTKEH-NH2 | 0.7 nM | 0.8 nM | 4.45 nM | 1.7 nM | 1.2 nM | Kd [7]: 19.2 nM; koff [7]: 0.00996 s⁻¹; kon [7]: 518000 M⁻¹ s⁻¹
8 | CMP-114, CMP-108 conjugated to 30 kDa DBCO PEG at the N-terminus (ligand, disulfide 34-129, 47-141, 2-92; not fully specified (N-terminus); also: N-terminal azide conjugated to 30 kDa DBCO-PEG) DCDIEGKDGKQYESVL[Nle]VSIDQLLDS[Nle]KEIGSNCL[hSer]NEFNFFKRHICDANKEG[Nle]FLFRAARKLRQFLK[Nle]NSTGDF[hSer]LHLLKVSEGTTILLNCTGQVKGRKPAALGEAQPTKSL[hSer]ENKSLKEQKKLNDLCFLKRLLQEIKTCWNKIL[Nle]GTKEH-NH2 | 4 pM | 2 pM | 10 pM | 4 pM | 5 pM | –
9 | CMP-035, recombinant human native IL-7 with His-tag (ligand, also called WT IL-7 His; recombinant IL-7 (WT)) DCDIEGKDGKQYESVLMVSIDQLLDSMKEIGSNCLNNEFNFFKRHICDANKEGMFLFRAARKLRQFLKMNSTGDFDLHLLKVSEGTTILLNCTGQVKGRKPAALGEAQPTKSLEENKSLKEQKKLNDLCFLKRLLQEIKTCWNKILMGTKEHVDHHHHHH | 1 pM | 1 pM | 32 pM | 6 pM | 2 pM | Kd [8]: 1.28 nM; koff [8]: 0.00698 s⁻¹; kon [8]: 5.47e+06 M⁻¹ s⁻¹
10 | CMP-117, recombinant IL-7 Q11F with His-tag (ligand) DCDIEGKDGKFYESVLMVSIDQLLDSMKEIGSNCLNNEFNFFKRHICDANKEGMFLFRAARKLRQFLKMNSTGDFDLHLLKVSEGTTILLNCTGQVKGRKPAALGEAQPTKSLEENKSLKEQKKLNDLCFLKRLLQEIKTCWNKILMGTKEHVDHHHHHH | 1 pM | 1 pM | 10 pM | 2 pM | 1 pM | –
